The target of one data set is T1, CYP9K1 (Anopheles gambiae, UniProt Q8T633).
T1 construct: recombinant, pCWori+ vector, E. coli membranes co-expressing An. gambiae CPR; cytochrome b5 added; with NADPH--cytochrome P450 reductase
T1 sequence (Q8T633 1-531): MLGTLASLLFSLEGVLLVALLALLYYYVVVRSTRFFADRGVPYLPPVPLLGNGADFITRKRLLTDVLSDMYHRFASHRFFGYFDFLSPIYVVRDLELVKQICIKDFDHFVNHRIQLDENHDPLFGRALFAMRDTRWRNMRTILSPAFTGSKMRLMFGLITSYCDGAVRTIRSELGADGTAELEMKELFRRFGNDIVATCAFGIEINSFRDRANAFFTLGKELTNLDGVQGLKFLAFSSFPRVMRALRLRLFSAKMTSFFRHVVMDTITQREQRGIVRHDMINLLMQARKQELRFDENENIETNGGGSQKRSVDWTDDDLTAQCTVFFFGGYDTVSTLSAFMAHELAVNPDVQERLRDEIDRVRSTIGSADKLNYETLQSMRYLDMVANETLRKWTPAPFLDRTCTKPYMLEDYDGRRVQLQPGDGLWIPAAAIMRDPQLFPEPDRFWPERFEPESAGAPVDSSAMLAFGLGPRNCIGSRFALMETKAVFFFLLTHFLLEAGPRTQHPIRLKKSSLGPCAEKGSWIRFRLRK
T1 sequence (Q86QH5 1-679 partner): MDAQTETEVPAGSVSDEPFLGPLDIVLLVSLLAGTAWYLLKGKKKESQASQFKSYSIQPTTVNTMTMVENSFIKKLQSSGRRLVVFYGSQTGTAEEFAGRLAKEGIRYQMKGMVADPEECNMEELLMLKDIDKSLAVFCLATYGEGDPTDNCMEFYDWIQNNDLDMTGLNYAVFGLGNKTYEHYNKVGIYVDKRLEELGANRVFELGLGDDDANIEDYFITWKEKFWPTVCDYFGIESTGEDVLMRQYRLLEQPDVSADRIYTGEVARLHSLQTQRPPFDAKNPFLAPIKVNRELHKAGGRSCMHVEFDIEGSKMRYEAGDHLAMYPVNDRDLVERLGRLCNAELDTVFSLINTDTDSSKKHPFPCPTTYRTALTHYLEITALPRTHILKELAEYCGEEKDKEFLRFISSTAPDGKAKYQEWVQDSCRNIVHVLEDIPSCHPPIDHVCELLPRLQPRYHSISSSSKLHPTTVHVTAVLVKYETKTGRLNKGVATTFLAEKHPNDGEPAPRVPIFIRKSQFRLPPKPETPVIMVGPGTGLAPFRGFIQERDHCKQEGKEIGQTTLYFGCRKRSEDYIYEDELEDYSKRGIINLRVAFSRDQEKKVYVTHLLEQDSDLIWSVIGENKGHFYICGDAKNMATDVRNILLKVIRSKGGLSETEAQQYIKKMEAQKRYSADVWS
The data set can be described thus: inhibition of chlorfenapyr depletion, HPLC. The data set is classed as biochemical.

Another data set addresses T2, CYP6P3 (Anopheles gambiae, UniProt Q8T632).
T2 construct: recombinant, pCWori+ vector, E. coli membranes co-expressing An. gambiae CPR; cytochrome b5 added in metabolism assays; with NADPH--cytochrome P450 reductase
T2 sequence (Q8T632 1-509): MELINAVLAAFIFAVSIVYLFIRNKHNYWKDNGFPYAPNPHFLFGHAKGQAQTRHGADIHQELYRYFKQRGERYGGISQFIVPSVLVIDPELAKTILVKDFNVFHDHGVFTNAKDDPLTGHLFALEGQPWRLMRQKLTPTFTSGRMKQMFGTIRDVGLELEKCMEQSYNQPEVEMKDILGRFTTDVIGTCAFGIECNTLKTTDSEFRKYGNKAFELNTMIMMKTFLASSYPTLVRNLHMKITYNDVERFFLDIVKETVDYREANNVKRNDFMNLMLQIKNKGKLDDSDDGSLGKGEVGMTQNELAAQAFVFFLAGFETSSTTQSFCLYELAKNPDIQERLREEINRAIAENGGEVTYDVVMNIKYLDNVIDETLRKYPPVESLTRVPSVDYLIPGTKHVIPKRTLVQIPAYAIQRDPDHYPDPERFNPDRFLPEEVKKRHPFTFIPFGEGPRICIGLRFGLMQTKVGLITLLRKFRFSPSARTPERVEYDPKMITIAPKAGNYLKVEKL
T2 sequence (Q86QH5 1-679 partner): T1 sequence (Q86QH5 1-679 partner)
Nature of the data set: inhibition of diethoxyfluorescein (DEF) fluorescent probe metabolism. The data set is classed as biochemical.

Substrate in data set [1]: CCOCn1c(-c2ccc(Cl)cc2)c(C#N)c(Br)c1C(F)(F)F
The data set can be described thus: tralopyril formation by HPLC, Michaelis-Menten fit. The data set is classed as biochemical, Anopheles gambiae. Particulars: NADPH regeneration system, 0.8 µM cytochrome b5, 50 mM potassium phosphate pH 7.4, recombinant E. coli membranes.

The values that follow come from article PMC10465574, “Chlorfenapyr metabolism by mosquito P450s associated with pyrethroid resistance identifies potential activation markers” (Scientific Reports, 2023).

What is called inhibition is the share of the control response that was lost under treatment. Lower therefore signals little suppression. The IC50 is the point on the concentration scale where inhibition reaches its midpoint. The term Km denotes the substrate concentration at which the rate is half of its maximum. The kcat is the number of substrate molecules converted per active site and unit of time at saturation.

Turning to `CC1(C)C(C=C(Cl)Cl)C1C(=O)OC(C#N)c1cccc(Oc2ccccc2)c1` (stereo not drawn) [α-cypermethrin], the inhibition at 10 µM against CYP9K1 was determined as 56.8%. The 50% inhibitory concentration (IC50) at CYP6P3 amounted to 16.7 µM. With `CCOCn1c(-c2ccc(Cl)cc2)c(C#N)c(Br)c1C(F)(F)F` [chlorfenapyr], at CYP6P3, the half-inhibitory concentration (IC50) was 30.4 µM.

B1: CYP9K1 (Anopheles gambiae) (protein)
chain: T1 sequence (Q8T633 1-531)
notes: recombinant, pCWori+ vector, E. coli membranes co-expressing An. gambiae CPR; cytochrome b5 added; with NADPH--cytochrome P450 reductase
For the molecule B1, in data set [1], the Km stood at 10.13 µM and the kcat worked out at 0.112 s⁻¹.

B2: CYP6P3 (Anopheles gambiae) (protein)
chain: T2 sequence (Q8T632 1-509)
notes: recombinant, pCWori+ vector, E. coli membranes co-expressing An. gambiae CPR; cytochrome b5 added in metabolism assays; with NADPH--cytochrome P450 reductase
With B2, in data set [1], the Km came to 16.32 µM and the kcat was 0.0285 s⁻¹.
